From the supplement of paper PMC10724198
± gives the standard deviation of the averaged measurements.

Tested on: Saccharomyces cerevisiae
Assay: protein stability index of tFT-peptide fusion (C-terminal peptide) (PSI (0-1 scale)); higher = more stable (slower turnover)
Settings: genetic background: wild type; temperature: 30 C
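Also: PSI is a weighted mean of sequencing reads over stability bins, variants kept only with over 10 reads, mCherry proximal and sfGFP distal, peptide attached via GGGS linker.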

Sequence	protein stability index
LWLLVAPGPPAQ	0.682 ± 0.027
LWSYFLGLHPSD	0.773 ± 0.038
LWVESRFVQTFL	0.6663 ± 0.0013
LYKSEGVYTGFW	0.729 ± 0.12
LYLKKIQQGIIK	0.69 ± 0.039
LYPEELQATAVY	0.5892 ± 0.00086
LYPTISCSARDG	0.699 ± 0.013
LYSNVLAAVMTG	0.623 ± 0.043
MAARGTEQGTMP	0.71 ± 0.061
MACCGVFISHKT	0.615 ± 0.026
MAEGRARLWGPS	0.701 ± 0.024
MARIASAQTSLT	0.688 ± 0.016
MESAGVGRVVWR	0.654 ± 0.051
MGACGGRVGKFG	0.662 ± 0.035
MGAVGGLCGMWA	0.711 ± 0.029
MGCDGSMAPRSL	0.6608 ± 0.0029
MGFRSVRGWVSL	0.699 ± 0.093
MGGVEMSNRIWE	0.663 ± 0.009
MGHKDDRGFADR	0.657 ± 0.013
MGIVEGIGASSL	0.662 ± 0.036
MGKSLCLFTQPI	0.668 ± 0.09
MGMSAGCGGWSG	0.6867 ± 0.0055
MHATWTLRRHGH	0.523 ± 0.04
MIASRVSYDMSY	0.608 ± 0.043
MICGCLWGSEGR	0.627 ± 0.11
MIRVRGRQKIEG	0.724 ± 0.13

Sequence	protein stability index
MKTNFLDVKILM	0.7186 ± 0.0059
MLGLHSDTRRSR	0.673 ± 0.022
MMEQLCCRRRLF	0.496 ± 0.041
MMMRKAPTARVS	0.637 ± 0.024
MNHHSDCLLRLW	0.648 ± 0.0084
MNNYWKNSTKIK	0.737 ± 0.025
MNRTDPSRDEKP	0.804 ± 0.094
MNSDQSGQGLTV	0.711 ± 0.011
MPKVIIGMSVTK	0.687 ± 0.015
MPNQTEARRKWV	0.633 ± 0.044
MQLPSHFEAWTS	0.781 ± 0.03
MRIKKQNIRNDT	0.615 ± 0.063
MRPSLIKVFLTR	0.632 ± 0.04
MRRSSKPRLSLT	0.725 ± 0.049
MSRPSLARLPAS	0.711 ± 0.011
MTESLIGCLSGD	0.7 ± 0.0074
MTIMPSPLGVVH	0.514 ± 0.055
MTLSCGVGLTVG	0.6521 ± 0.0009
MVGAWCAGIPGI	0.668 ± 0.0022
MVMEGLRTLSCQ	0.6589 ± 0.0061
MVRRDGMTVSLG	0.719 ± 0.028
MVTWSDRVIKSW	0.733 ± 0.023
MVVGWGGVEPVG	0.758 ± 0.048
MWVCGFVGGGGG	0.654 ± 0.035
NAHHSASPSHCF	0.6471 ± 0.0059
NALGRPSAFILT	0.695 ± 0.057

Sequence	protein stability index
NAVSFVKGRLVY	0.657 ± 0.028
NCSSNNRQSENI	0.644 ± 0.017
NDNNSRSGRRIF	0.66 ± 0.019
NDRLDRRDWWEG	0.695 ± 0.022
NELRTFLGDRDI	0.675 ± 0.043
NEPNIRDRSIFS	0.688 ± 0.015
NEQPSKLLAKEC	0.866 ± 0.13
NFRTHRHLVARS	0.762 ± 0.019
NGISQWMGIGGQ	0.667 ± 0.011
NGRNKKRKCLQT	0.706 ± 0.086
NGSIENIAKRKK	0.639 ± 0.077
NGTGGASSLAFG	0.689 ± 0.052
NGTGGVSSLAFG	0.6399 ± 0.0013
NHRANKIRKCKD	0.6298 ± 0.0016
NIAGHLHQPVQM	0.712 ± 0.029
NIGVKNVVLVEG	0.537 ± 0.043
NIRLRRKIIINK	0.562 ± 0.088
NKEIKKIRIKKE	0.664 ± 0.076
NKIRIIQVNLNR	0.699 ± 0.17
NKKIEDYDKNKN	0.6835 ± 0.00098
NKKKGYRKKQNH	0.567 ± 0.032
NKKKKETKNAQQ	0.698 ± 0.013
NKKKNKKIRQEK	0.685 ± 0.017
NKNKENMKRKTK	0.682 ± 0.039
NKNKKKIKHKRK	0.669 ± 0.051
NKQNKEIQPKRK	0.653 ± 0.021

Sequence	protein stability index
NKQTAEIGRGSC	0.651 ± 0.03
NKRCRNITIQRA	0.73379 ± 0.00047
NKRLKNKIKRIK	0.651 ± 0.037
NLPLVDIIPISN	0.828 ± 0.025
NNSLPTDVDKYL	0.683 ± 0.019
NPYKREKKKNKK	0.787 ± 0.14
NQKEIKYTLKYI	0.684 ± 0.018
NQVNEELDKKGH	0.719 ± 0.14
NRQDASAPVCLL	0.719 ± 0.049
NRRPLVQNGKLF	0.67849 ± 0.00026
NRVRVNSSYGRD	0.71 ± 0.018
NSGSRGTRVVGL	0.705 ± 0.084
NSKGKKFKCLKK	0.766 ± 0.0099
NSSEIGQNADTA	0.672 ± 0.025
NTRKIEAVGSER	0.658 ± 0.024
NTTKLEKRGNIE	0.574 ± 0.084
NVGEWGTAVMSR	0.684 ± 0.034
NVLIASGIEVKK	0.629 ± 0.0099
NVTIRVAIRYHE	0.575 ± 0.021
NVWGTGGMCTFV	0.7058 ± 0.0019
NWRAAGQSGPES	0.67 ± 0.012
NYKVRKQKVDRN	0.674 ± 0.062
PACPPTSDFPSL	0.623 ± 0.073
PAFRSDKQQSQE	0.703 ± 0.074
PAGVDQPYIPGE	0.6002 ± 0.0054
PAHSTEVVPRVL	0.717 ± 0.018

Sequence	protein stability index
PALAPLRPLPPV	0.669 ± 0.0073
PALCGGFFLVGV	0.636 ± 0.019
PALGLELYFVLV	0.519 ± 0.012
PALLRLGTGAVG	0.711 ± 0.047
PALPFAPPPLPP	0.685 ± 0.02
PALPPASPRPAL	0.776 ± 0.072
PALPPPGSPPPS	0.616 ± 0.01
PANRGPPTPFSP	0.729 ± 0.024
PAPAPPPSPLPP	0.655 ± 0.028
PAPGLTPAGRAP	0.777 ± 0.14
PAPPFPIRPPAA	0.653 ± 0.015
PAPPPLPSAAPP	0.706 ± 0.14
PAPPPPARPALP	0.706 ± 0.027
PAPPPPFPPSPP	0.695 ± 0.039
PAPPPVRPRSLP	0.627 ± 0.021
PAPRWFSHPSYP	0.676 ± 0.01
PAPSASPPLLRC	0.722 ± 0.03
PAPSPLPPPPSL	0.6978 ± 0.0057
PASCARVFVGMS	0.67 ± 0.037
PASDPPHRDPPH	0.658 ± 0.019
PCASGSPRFCQR	0.707 ± 0.025
PCLSFPPALRAA	0.641 ± 0.012
PCPIGGRPCRVG	0.7275 ± 0.0037
PCPPNSPPLSPT	0.71 ± 0.043
PCPPPRSPPLAP	0.74539 ± 0.00027
PCRLTRSPRTLP	0.689 ± 0.1

Sequence	protein stability index
PCSLPLVLSFPH	0.6846 ± 0.0037
PCSPLSLPPPFP	0.722 ± 0.0073
PCSVPHSGSAPA	0.712 ± 0.044
PDEFIAKRWNST	0.62 ± 0.012
PDVNEATPKLWC	0.694 ± 0.027
PDYPLSCLLFFP	0.643 ± 0.011
PELCLSSPSSLS	0.686 ± 0.018
PESAWLSPRCVF	0.6696 ± 0.0039
PFAFLSPLIPPP	0.749 ± 0.013
PFFFLWSLYFFL	0.5096 ± 0.0038
PFFSFGGLRFLL	0.6621 ± 0.0053
PFGSYIRHRENT	0.759 ± 0.14
PFHSLSATFPPR	0.768 ± 0.086
PFLFPLLSPFSV	0.681 ± 0.019
PFLHPTRLARSN	0.712 ± 0.011
PFLSPPPPSTPP	0.704 ± 0.01
PFPHLYTPRLLF	0.571 ± 0.014
PFPLPPLCPPAA	0.722 ± 0.064
PFPPLRSLPRPP	0.737 ± 0.099
PFPPPPPPPMPT	0.691 ± 0.05
PFPPPSPPPPSS	0.6785 ± 0.003
PFPPRLPSPATP	0.6914 ± 0.0037
PFPPSLPSLPLL	0.698 ± 0.017
PFPPYSLPLPSP	0.759 ± 0.016
PFPSPSRHSLFP	0.723 ± 0.084
PFRFLFGISLFF	0.559 ± 0.015

Sequence	protein stability index
PFRLSPPLPPAP	0.743 ± 0.084
PFRSPYQRPLHY	0.689 ± 0.039
PFSIPPPPPRYP	0.766 ± 0.0092
PFSPDVSSVVFL	0.667 ± 0.032
PFSPPLTPTFFP	0.7052 ± 0.0057
PFSPPPGPPPPP	0.6806 ± 0.0034
PFTSPAGSFPPP	0.762 ± 0.068
PFWTPASPPSFY	0.748 ± 0.014
PGAFDLPHSQAV	0.552 ± 0.059
PGCSCPSTRRTT	0.655 ± 0.077
PGGCQDPWAALC	0.714 ± 0.077
PGHPGSCPRRNG	0.645 ± 0.046
PGPDMSSVSSDY	0.6 ± 0.11
PGPLISAVPLPF	0.733 ± 0.064
PGPNPASCIPTW	0.6835 ± 0.0021
PGPWLGLTPCRT	0.813 ± 0.14
PGRAARLLPRPL	0.712 ± 0.048
PGRLTTERLSFQ	0.7 ± 0.043
PGRMEKKALKRP	0.677 ± 0.014
PGRQSPPAPLYR	0.678 ± 0.0098
PGVRGVKPVGVS	0.675 ± 0.092
PGVRPPSLVPPL	0.65 ± 0.11
PHALSSFLSLFL	0.791 ± 0.017
PHAPHPPHPAPC	0.653 ± 0.01
PHARHPPDHRPF	0.678 ± 0.059
PHLESVRYGLFS	0.709 ± 0.02

Sequence	protein stability index
PHLFDPLVPASF	0.682 ± 0.048
PHLHTPDDARPL	0.698 ± 0.092
PHLPYCSPSFPV	0.642 ± 0.059
PHLTPRRQHRLR	0.667 ± 0.049
PHPLLPGRSSPP	0.677 ± 0.061
PHPLPHASPAPC	0.6677 ± 0.0019
PHPLPPPTPSVP	0.677 ± 0.018
PHPPHLRPLCPR	0.719 ± 0.029
PHPPHRLPYPRL	0.808 ± 0.054
PHPPPERSTNLC	0.694 ± 0.036
PHPPPHPLFSRF	0.758 ± 0.02
PHPPPPSPPLPT	0.709 ± 0.041
PHPPSDLLPYRP	0.691 ± 0.022
PHPRPPLPLSLP	0.697 ± 0.013
PHRACSSRPLGP	0.718 ± 0.049
PHRPPPHHSLPP	0.6976 ± 0.0013
PHRPTALALHWF	0.66 ± 0.0067
PHTHHAPNTRNQ	0.6797 ± 0.0036
PIALPLPPPTPS	0.757 ± 0.08
PIERISNSGKRP	0.6928 ± 0.0017
